Reference: patent US8551717B2, “Method for determining sumoylation” (Medizinische Hochschule Hannover, priority 2008, dated 2013)

Tests used:
Format in all cases: cell-based
U-HSF2BP = target: T1, U-HSF2BP (Homo sapiens, UniProt O75031+P63279); experiment: Trans-SUMOylation by U-HSF2BP; set-up: key: (++), strong TransSUMOylation; (+), TransSUMOylation; (+/−) weak TransSUMOylation; (−) no detectable TransSUMOylation; settings: protein 2 construct coexpressed with U-HSF2BP and EGFP-SUMO1 in HEK293; western blot; Table 2
T1 construct: expressed in transfected cells; host or cells: HEK293
T1 sequence (P63279+O75031 fused): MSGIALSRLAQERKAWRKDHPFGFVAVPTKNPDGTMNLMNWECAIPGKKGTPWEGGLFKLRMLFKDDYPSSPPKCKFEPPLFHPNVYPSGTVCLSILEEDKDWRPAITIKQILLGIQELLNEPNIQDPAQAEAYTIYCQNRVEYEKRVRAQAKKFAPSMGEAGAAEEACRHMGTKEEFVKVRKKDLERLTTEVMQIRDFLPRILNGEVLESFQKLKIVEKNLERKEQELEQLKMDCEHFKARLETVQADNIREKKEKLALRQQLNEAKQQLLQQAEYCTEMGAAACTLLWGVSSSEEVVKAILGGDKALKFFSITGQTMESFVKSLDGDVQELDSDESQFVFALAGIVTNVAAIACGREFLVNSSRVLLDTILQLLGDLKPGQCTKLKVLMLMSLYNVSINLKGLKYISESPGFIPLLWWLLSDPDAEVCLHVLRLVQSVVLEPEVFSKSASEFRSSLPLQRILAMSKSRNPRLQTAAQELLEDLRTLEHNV
Text: (§1) To identify new SUMOylation substrates and to study the function of SUMOylation the Ubc9/substrate dimerisation-dependent SUMOylation system (USDDS) was developed which consists of fusions of the SUMOylation substrate and of the SUMO-conjugating enzyme Ubc9 to the chemically activatable heterodimerisation domains FKBP and FRB, respectively, as shown in FIG. 2. When the substrate protein fused to FKBP is coexpressed with Ubc9-FRB, treatment of HEK293 cells with the rapamycin-related dimerizer AP21967 induces SUMOylation of the substrate protein fused to FKBP at its specific SUMOylation site. […] Dependent on an EcoRl site in the coding sequence, seven C-terminal amino acids of the human STAT1a in the STAT1-FKBP/FRB fusion proteins are missing. For the SUMOylation analysis HEK293 (human embryonic kidney cells) cells have been used. HEK293 cells were cultured in Dulbecco's modified Eagle's medium with high glucose, complemented with 10% fetal calf serum, 2 mM L-glutamine, 100 U/ml penicillin and […] streptomycin. […]
(§2) As shown above, the SUMOylation of a protein of interest can be induced by the heterodimerisation with a binding protein fused to Ubc9. […] Therefore the protein pairs were coexpressed with EGFP-SUMO1 in HEK293 cells and after 24h the transfectants were lysed and the protein extracts were analyzed in western blots. […]

U-HDGF = target: T2, U-HDGF (Homo sapiens, UniProt P51858+P63279); experiment: Trans-SUMOylation by U-HDGF; set-up: key: (++), strong TransSUMOylation; (+), TransSUMOylation; (+/−) weak TransSUMOylation; (−) no detectable TransSUMOylation; settings: protein 2 construct coexpressed with U-HDGF and EGFP-SUMO1 in HEK293; western blot; Table 2
T2 construct: Ubc9 (fusion partner); expressed in transfected cells; host or cells: HEK293
T2 sequence (P63279+P51858 fused): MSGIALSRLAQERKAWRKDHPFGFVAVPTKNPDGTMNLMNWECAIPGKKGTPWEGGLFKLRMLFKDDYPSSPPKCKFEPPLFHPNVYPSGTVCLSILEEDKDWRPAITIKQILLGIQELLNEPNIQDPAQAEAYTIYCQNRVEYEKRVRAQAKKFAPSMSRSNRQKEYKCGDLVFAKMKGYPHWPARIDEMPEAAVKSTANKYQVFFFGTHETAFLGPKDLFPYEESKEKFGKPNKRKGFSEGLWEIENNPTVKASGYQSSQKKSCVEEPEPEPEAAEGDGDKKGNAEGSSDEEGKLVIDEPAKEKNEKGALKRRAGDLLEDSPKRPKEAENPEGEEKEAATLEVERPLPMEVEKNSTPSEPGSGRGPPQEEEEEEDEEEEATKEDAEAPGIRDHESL
Text: as §1, §2

JUN-U = target: T3, JUN-U (Homo sapiens, UniProt P05412+P63279); experiment: Trans-SUMOylation by JUN-U; settings: protein 2 construct coexpressed with JUN-U and EGFP-SUMO1 in HEK293; western blot; Table 2
T3 construct: expressed in transfected cells; host or cells: HEK293
T3 sequence (P05412+P63279 fused): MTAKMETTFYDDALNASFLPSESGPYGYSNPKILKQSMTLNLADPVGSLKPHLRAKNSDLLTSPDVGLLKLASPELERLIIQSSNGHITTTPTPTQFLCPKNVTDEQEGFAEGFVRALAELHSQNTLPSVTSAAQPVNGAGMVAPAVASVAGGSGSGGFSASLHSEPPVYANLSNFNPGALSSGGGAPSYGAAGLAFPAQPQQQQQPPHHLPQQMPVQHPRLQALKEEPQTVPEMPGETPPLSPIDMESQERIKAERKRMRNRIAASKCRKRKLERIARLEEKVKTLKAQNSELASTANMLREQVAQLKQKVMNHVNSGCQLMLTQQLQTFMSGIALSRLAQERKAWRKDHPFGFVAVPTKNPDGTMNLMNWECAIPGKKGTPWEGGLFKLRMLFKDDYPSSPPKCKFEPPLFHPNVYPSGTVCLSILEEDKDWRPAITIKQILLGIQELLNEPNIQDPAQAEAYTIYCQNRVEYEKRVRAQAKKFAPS

U-MK2 = target: T4, U-MK2 (Homo sapiens, UniProt P49137+P63279); experiment: Trans-SUMOylation by U-MK2; settings: protein 2 construct coexpressed with U-MK2 and EGFP-SUMO1 in HEK293; western blot; Table 2
T4 construct: expressed in transfected cells; host or cells: HEK293
T4 sequence (P63279+P49137 fused): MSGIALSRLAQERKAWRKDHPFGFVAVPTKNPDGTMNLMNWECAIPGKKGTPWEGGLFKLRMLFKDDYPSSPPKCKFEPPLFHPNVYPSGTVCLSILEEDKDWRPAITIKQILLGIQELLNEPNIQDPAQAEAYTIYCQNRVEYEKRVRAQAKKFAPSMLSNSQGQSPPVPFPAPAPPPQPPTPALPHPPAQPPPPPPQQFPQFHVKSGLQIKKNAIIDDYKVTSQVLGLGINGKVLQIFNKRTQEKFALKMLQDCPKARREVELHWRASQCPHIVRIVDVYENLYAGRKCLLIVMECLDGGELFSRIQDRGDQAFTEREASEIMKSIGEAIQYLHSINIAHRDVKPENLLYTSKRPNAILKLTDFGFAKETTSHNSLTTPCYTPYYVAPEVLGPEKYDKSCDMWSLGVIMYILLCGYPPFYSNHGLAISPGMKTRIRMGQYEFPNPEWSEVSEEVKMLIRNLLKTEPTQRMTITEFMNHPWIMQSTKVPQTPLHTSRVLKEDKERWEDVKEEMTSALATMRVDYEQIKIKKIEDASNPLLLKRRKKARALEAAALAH

MK2-U = target: T5, MK2-U (Homo sapiens, UniProt P49137+P63279); experiment: Trans-SUMOylation by MK2-U; settings: protein 2 construct coexpressed with MK2-U and EGFP-SUMO1 in HEK293; western blot; Table 2
T5 construct: expressed in transfected cells; host or cells: HEK293
T5 sequence (P49137+P63279 fused): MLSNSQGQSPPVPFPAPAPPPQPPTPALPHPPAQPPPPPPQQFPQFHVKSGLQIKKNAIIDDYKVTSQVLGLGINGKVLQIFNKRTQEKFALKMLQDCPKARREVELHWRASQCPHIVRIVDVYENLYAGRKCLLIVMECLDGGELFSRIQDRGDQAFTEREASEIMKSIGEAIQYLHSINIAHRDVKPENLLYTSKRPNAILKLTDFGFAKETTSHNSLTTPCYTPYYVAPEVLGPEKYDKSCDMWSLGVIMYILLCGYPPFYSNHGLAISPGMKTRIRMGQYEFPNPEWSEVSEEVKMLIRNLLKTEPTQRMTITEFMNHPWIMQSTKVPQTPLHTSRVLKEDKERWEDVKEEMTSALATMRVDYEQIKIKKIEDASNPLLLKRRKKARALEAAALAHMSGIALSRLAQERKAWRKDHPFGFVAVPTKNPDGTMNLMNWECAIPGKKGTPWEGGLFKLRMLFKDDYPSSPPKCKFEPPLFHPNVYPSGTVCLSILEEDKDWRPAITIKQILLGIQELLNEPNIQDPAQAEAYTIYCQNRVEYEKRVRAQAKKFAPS

U-p38α = target: T6, U-p38α (Homo sapiens, UniProt P63279+Q16539); experiment: Trans-SUMOylation by U-p38α; settings: protein 2 construct coexpressed with U-p38α and EGFP-SUMO1 in HEK293; western blot; Table 1
T6 construct: expressed in transfected cells; host or cells: HEK293
T6 sequence (P63279+Q16539 fused): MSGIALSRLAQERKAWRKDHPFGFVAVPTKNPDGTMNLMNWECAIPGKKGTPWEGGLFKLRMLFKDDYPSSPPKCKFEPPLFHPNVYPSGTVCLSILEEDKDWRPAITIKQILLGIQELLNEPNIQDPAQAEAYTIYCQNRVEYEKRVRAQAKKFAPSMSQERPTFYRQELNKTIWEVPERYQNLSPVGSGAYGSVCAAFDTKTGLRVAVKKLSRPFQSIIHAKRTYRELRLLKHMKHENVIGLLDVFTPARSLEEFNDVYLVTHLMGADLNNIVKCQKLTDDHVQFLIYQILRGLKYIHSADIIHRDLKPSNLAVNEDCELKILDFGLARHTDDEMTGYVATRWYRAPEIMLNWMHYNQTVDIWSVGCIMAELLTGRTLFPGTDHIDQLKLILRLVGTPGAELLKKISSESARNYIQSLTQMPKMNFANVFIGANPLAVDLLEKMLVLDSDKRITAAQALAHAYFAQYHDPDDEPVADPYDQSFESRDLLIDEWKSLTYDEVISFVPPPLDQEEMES

ERK2-U = target: T7, ERK2-U (Homo sapiens, UniProt P28482+P63279); experiment: Trans-SUMOylation by ERK2-U; settings: protein 2 construct coexpressed with ERK2-U and EGFP-SUMO1 in HEK293; western blot; Table 2
T7 construct: expressed in transfected cells; host or cells: HEK293
T7 sequence (P28482+P63279 fused): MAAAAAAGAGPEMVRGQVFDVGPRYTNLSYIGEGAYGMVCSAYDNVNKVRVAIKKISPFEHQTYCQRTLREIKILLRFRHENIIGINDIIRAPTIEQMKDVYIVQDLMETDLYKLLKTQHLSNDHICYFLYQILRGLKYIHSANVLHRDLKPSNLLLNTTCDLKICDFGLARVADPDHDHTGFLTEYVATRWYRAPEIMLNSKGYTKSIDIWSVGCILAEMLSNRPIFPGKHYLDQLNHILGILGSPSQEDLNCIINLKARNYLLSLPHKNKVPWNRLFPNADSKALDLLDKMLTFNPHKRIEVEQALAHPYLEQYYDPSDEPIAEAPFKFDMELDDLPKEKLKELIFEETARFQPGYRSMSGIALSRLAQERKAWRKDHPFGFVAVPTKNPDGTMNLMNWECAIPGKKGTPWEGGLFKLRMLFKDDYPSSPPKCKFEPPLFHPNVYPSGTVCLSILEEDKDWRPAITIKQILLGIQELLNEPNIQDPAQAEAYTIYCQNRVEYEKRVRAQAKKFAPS

U-MK5 = target: T8, U-MK5 (Homo sapiens, UniProt P63279+Q8IW41); experiment: Trans-SUMOylation by U-MK5; set-up: key: (++), strong TransSUMOylation; (+), TransSUMOylation; (+/−) weak TransSUMOylation; (−) no detectable TransSUMOylation; settings: protein 2 construct coexpressed with U-MK5 and EGFP-SUMO1 in HEK293; western blot; Table 2
T8 construct: expressed in transfected cells; host or cells: HEK293
Text: as §1, §2

U-ERK2 = target: T9, U-ERK2 (Homo sapiens, UniProt P28482+P63279); experiment: Trans-SUMOylation by U-ERK2; settings: protein 2 construct coexpressed with U-ERK2 and EGFP-SUMO1 in HEK293; western blot; Table 2
T9 construct: expressed in transfected cells; host or cells: HEK293
T9 sequence (P63279+P28482 fused): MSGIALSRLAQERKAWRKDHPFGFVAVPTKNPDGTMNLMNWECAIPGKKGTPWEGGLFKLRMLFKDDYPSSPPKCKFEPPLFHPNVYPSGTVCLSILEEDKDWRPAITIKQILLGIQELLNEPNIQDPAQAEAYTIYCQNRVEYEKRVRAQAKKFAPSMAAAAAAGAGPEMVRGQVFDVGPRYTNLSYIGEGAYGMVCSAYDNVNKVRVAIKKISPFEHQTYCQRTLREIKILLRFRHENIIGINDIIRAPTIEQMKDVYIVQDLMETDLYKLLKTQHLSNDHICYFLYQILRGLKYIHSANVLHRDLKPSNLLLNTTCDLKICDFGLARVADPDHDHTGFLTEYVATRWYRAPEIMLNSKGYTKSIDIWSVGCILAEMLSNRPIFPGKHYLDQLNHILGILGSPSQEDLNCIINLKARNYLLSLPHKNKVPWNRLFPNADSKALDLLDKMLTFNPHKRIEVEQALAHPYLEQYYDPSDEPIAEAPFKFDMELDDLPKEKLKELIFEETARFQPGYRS

U-CSNK2B = target: T10, U-CSNK2B (Homo sapiens, UniProt P63279+P67870); experiment: Trans-SUMOylation by U-CSNK2B; set-up: key: (++), strong TransSUMOylation; (+), TransSUMOylation; (+/−) weak TransSUMOylation; (−) no detectable TransSUMOylation; settings: protein 2 construct coexpressed with U-CSNK2B and EGFP-SUMO1 in HEK293; western blot; Table 2
T10 construct: expressed in transfected cells; host or cells: HEK293
T10 sequence (P63279+P67870 fused): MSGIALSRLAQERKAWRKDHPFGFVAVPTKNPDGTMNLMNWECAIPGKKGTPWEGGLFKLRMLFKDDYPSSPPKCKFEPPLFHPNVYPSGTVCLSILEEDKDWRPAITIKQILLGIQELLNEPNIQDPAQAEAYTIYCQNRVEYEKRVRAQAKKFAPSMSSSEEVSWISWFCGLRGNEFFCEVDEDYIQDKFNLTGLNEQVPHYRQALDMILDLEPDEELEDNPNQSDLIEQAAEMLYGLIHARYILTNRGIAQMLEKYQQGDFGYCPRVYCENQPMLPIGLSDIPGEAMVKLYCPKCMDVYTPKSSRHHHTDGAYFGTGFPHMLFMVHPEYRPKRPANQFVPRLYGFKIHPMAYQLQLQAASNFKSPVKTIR
Text: as §1, §2

| Trans-SUMOylation (U-HSF2BP) | Trans-SUMOylation (U-HDGF) | Trans-SUMOylation (JUN-U) | Trans-SUMOylation (U-MK2) | Trans-SUMOylation (MK2-U) | Trans-SUMOylation (U-p38α) | Trans-SUMOylation (ERK2-U) | Trans-SUMOylation (U-MK5) | Trans-SUMOylation (U-ERK2) | Trans-SUMOylation (U-CSNK2B) | Molecule |
| --- | --- | --- | --- | --- | --- | --- | --- | --- | --- | --- |
| + | − |  |  |  |  |  |  |  |  | GST-HSF2BP: HSF2BP fused to GST tag (protein, UniProt O75031 1-334, looked up, GST tag) Heat shock factor 2-binding …: MGEAGAAEEACRHMGTKEEFVKVRKKDLERLTTEVMQIRDFLPRILNGEVLESFQKLKIVEKNLERKEQELEQLKMDCEHFKARLETVQADNIREKKEKLALRQQLNEAKQQLLQQAEYCTEMGAAACTLLWGVSSSEEVVKAILGGDKALKFFSITGQTMESFVKSLDGDVQELDSDESQFVFALAGIVTNVAAIACGREFLVNSSRVLLDTILQLLGDLKPGQCTKLKVLMLMSLYNVSINLKGLKYISESPGFIPLLWWLLSDPDAEVCLHVLRLVQSVVLEPEVFSKSASEFRSSLPLQRILAMSKSRNPRLQTAAQELLEDLRTLEHNV |
|  |  | − | − | − | + | (+/−) | (+/−) | − | − | HA-MK5: MK5 fused to HA tag (protein, left off: small tags and cut ends, MK5 fused to HA tag) MSEESDMDKAIKETSILEEYSINWTQKLGAGISGPVRVCVKKSTQERFALKILLDRPKARNEVRLHMMCATHPNIVQIIEVFANSVQFPHESSPRARLLIVMEMMEGGELFHRISQHRHFTEKQASQVTKQIALALRHCHLLNIAHRDLKPENLLFKDNSLDAPVKLCDFGFAKIDQGDLMTPQFTPYYVAPQVLEAQRRHQKEKSGIIPTSPTPYTYNKSCDLWSLGVIIYVMLCGYPPFYSKHHSRTIPKDMRRKIMTGSFEFPEEEWSQISEMAKDVVRKLLKVKPEERLTIEGVLDHPWLNSTEALDNVLPSAQLMMDKAVVAGIQQAHAEQLANMRIQDLKVSLKPLHSVNNPILRKRKLLGTKPKDSVYIHDHENGAEDSNVALEKLRDVIAQCILPQAGKGENEDEKLNEVMQEAWKYNRECKLLRDTLQSFSWNGRGFTDKVDRLKLAEIVKQVIEEQTTSHESQ |
